In assay [1] the target is T1, Recombinant human NRP1 with His Tag (Sino Biological Inc.; Cat #1001-H08H) (human, UniProt O14786-2 22-644).
T1 construct: also called Neuropilin 1
T1 sequence (looked up): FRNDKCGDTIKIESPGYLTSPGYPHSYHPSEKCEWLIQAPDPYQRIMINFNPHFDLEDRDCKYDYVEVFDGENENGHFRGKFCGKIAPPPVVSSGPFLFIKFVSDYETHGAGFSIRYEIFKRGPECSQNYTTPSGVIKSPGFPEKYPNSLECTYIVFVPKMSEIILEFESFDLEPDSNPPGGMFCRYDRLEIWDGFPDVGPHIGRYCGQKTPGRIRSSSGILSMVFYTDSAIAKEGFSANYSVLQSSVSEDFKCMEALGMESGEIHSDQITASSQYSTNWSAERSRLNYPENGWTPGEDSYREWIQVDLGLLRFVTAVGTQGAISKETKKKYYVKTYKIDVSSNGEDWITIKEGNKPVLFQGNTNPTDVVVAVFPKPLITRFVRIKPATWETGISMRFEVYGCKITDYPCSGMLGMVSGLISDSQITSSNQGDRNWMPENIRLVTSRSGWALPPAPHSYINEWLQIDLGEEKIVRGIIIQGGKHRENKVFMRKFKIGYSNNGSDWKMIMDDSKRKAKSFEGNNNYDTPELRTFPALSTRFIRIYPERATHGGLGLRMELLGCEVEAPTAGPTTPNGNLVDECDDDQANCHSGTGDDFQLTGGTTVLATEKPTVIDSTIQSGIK
Put plainly: BLI (Octet Red96), biotinylated VEGF165 on streptavidin sensor, NRP1 in solution.

Assay [2] deals with T1, Recombinant human NRP1 with His Tag …. The experiment in a line: BLI (Octet Red96), biotinylated VEGF165 on streptavidin sensor, NRP1 in solution; value 1 of 6 in the cell. Background: Biolayer interferometry detects binding as a change in optical thickness at a sensor tip.
The target is the same in assay [3]. The experiment in a line: BLI (Octet Red96), biotinylated VEGF165 on streptavidin sensor, NRP1 in solution; value 2 of 6 in the cell.
For assay [4] the target is unchanged. The experiment in a line: BLI (Octet Red96), biotinylated VEGF165 on streptavidin sensor, NRP1 in solution; value 3 of 6 in the cell.
Assay [5] shares this target. The experiment in a line: BLI (Octet Red96), biotinylated VEGF165 on streptavidin sensor, NRP1 in solution; value 4 of 6 in the cell.
Assay [6] has the same target. Put plainly: BLI (Octet Red96), biotinylated VEGF165 on streptavidin sensor, NRP1 in solution; value 5 of 6 in the cell.
Assay [7] has the same target. Put plainly: BLI (Octet Red96), biotinylated VEGF165 on streptavidin sensor, NRP1 in solution; value 6 of 6 in the cell.

B1: Biotinylated recombinant Human VEGF165 (ACRO Biosystems; Cat # VE5-H8210) (ligand, UniProt P15692-4 27-191, looked up)
chain: APMAEGGGQNHHEVVKFMDVYQRSYCHPIETLVDIFQEYPDEIEYIFKPSCVPLMRCGGCCNDEGLECVPTEESNITMQIMRIKPHQGQHIGEMSFLQHNKCECRPKKDRARQENPCGPCSERRKHLFVQDPQTCKCSCKNTDSRCKARQLELNERTCRCDKPRR
notes: also called biotinylated VEGF
As for B1, the Kd – broadly, the concentration at which binding is half-saturated – in assay [1] is 40 to 98 nM; in assay [2], 43 nM; in assay [3], 26 nM; in assay [4], 75 nM; in assay [5], 98 nM; in assay [6], 18 nM. Besides, in assay [7], the dissociation constant (Kd) was found to be 26 nM.
